Measurements: EP4676945A2

Target: fibrin
Assay: cell adhesion assay: HEK293 cells transfected with the CAR, 30 minutes on fibrin-coated plates, washed with PBS, adhered cells counted by Hoechst stain; reference control-CAR

B1: fibrin-specific FIB2-CAR (PMC 1946, FIB2scfvCAR), expressed on transfected/transduced HEK293 cells (receptor)
chain: DIQLTQSPSSLSASVGDRVTITCRASQNIGVNLNWYQQRPGKGPKLLVSSTFSLQSGVPSRFSASGAGTNFTLTISSLQPEDYVTYYCQQSYSSPFTFGPGTKVDIKGGGGSGGGGSGGGGSEVQLVESGGGAVQPGRSLRLSCAASGVSFSNIGMHWVRQAPGKGLEWVALISSDGRHTHYADSVKGRFTISRDNSENTLYLQINGLRADDTAVYYCAKGLDTRARYMGKFYTFDYWGQGTLVTVSSASAIEVMYPPPYLDNEKSNGTIIHVKGKHLCPSPLFPGPSKPFWVLVVVGGVLACYSLLVTVAFIIFWVKRGRKKLLYIFKQPFMRPVQTTQEEDGCSCRFPEEEEGGCELRVKFSRSADAPAYQQGQNQLYNELNLGRREEYDVLDKRRGRDPEMGGKPRRKNPQEGLYNELQKDKMAEAYSEIGMKGERRRGKGHDGLYQGLSTATKDTYDALHMQALPPR
For B1, the fold increase of cell adhesion to fibrin against the control-CAR construct was 9.8 fold.
